Numbering of substitutions follows the chain as printed. Each block holds one binder with its values, some of them ahead of it.
Legend:
human ENO1 protein [1] = molecular target: T1, human ENO1 protein (human, UniProt P06733 1-434); assay: SPR, BIAcore 2000, antibody on the chip, ENO1 0.3125 nM to 40 nM as analyte, 25 degree C
T1 construct: Purified human ENO1 protein coated on ELISA plates or injected as SPR analyte; also called alpha-enolase; enolase-1
Text: (§1) To know the binding kinetics difference among individual antibodies, surface plasmon resonance (SPR) measurement with a BIAcore 2000 (BIAcore. Inc., Piscataway, N.J.) was used as previously described (Karlsson & Falt, (1997) J. Immunol Methods 200:121-133). Carboxymethylated dextran biosensor chips (CM5, BIAcore Inc.) were activated with N-ethyl-N′-(3-dimethylaminopropyl)-carbodiimide hydrochloride (EDC) and N-hydroxysu-ccinimide (NHS) according to the supplier's instructions. Chimera EN10 mAb was diluted with 10 mM sodium acetate, pH 4.8, into 5 microgram/ml before injection at a flow rate of 20 micro L/minute to achieve approximately 100 response units (RU) of coupled protein followed by the injection of 1M ethanolamine to block unreacted groups. For kinetics measurements, two-fold serial dilutions of ENO1 (0.3125 nM to 40 nM) were injected in HBS-P Biacore running buffer provided by the manufacturer (BIAcore, Inc., Piscataway, N.J.) at 25 degree C. at a flow rate of 25 microL/min. and binding responses on the EN10 mAb were corrected by subtraction of responses on a blank flow cell. Association rates (kon or ka) and dissociation rates (koff or kd) were calculated using a simple one-to-one Langmuir binding model with separate fittings of kon and koff was used. (BIAcore™ Evaluation Software version 3.2).

human ENO1 protein [2] = molecular target: T1, human ENO1 protein; assay: ENO1 binding ELISA
human ENO1 protein [3] = molecular target: T1, human ENO1 protein; assay: told with the SPR results of FIG. 7B
Text: as §1

human ENO1 protein [4] = molecular target: T1, human ENO1 protein; assay: ELISA, 400 ng/100 µL human ENO1 coated, antibody in 15 two-fold dilutions, four parameter logistic fit
Protocol: (§2) To determine the binding activity of each mutant antibody, 400 ng/100 μL of human ENO1 protein was coated on a 96-well ELISA overnight at 4° C. and the plate further was washed by PBS. The plate was blocked with 1% BSA (w/v) in PBS at room temperature for 1 hour, then washed again with 1×PBS. EN10.4, EN10.5, and humEN10 mAb antibodies were 2-fold serial diluted to 15 different concentrations and added to the plate at 37° C. for 1 hour. After the reaction was complete, the plate was washed 3 times with 1×PBS. A 1/8000 dilution of goat anti-human-HRP antibody was added and incubated at 37° C. for 1 hour, and then the plate washed 3 times with 1×PBS. The TMB substrate was added and reacted at room temperature for 30 minutes. The reaction was stopped by adding 1N HCl, and OD 450 was read to determine the activity. Every study was repeated three times. Data are presented as mean±SD. OD readings and concentrations of antibody were used to make a multiple scatter figure by Sigmaplot. The KD values were predicted by four parameter logistic fit.
(§3) There is no significant affinity difference among three different editions of hum EN10 mAb antibodies. […] Due to the structure similarity between cysteine and serine, EN10.5 is chosen to generate antibody production cell lines.

human ENO1 protein [5] = molecular target: T1, human ENO1 protein; assay: ELISA, human ENO1 coated on the plate; upper plateau of the four parameter logistic fit
Protocol: as §2, §3

[6] = molecular target: T2, ENO1 mutant R327 to alanine (human, UniProt P06733 1-434); assay: ELISA, ENO1 mutant A327 coated, EN10.5 mAb titrated
T2 construct: Expressed in E. coli and purified on Ni-agarose
T2 sequence (P06733 other isoform, or with tags, fused parts or gaps mutant limits assumed): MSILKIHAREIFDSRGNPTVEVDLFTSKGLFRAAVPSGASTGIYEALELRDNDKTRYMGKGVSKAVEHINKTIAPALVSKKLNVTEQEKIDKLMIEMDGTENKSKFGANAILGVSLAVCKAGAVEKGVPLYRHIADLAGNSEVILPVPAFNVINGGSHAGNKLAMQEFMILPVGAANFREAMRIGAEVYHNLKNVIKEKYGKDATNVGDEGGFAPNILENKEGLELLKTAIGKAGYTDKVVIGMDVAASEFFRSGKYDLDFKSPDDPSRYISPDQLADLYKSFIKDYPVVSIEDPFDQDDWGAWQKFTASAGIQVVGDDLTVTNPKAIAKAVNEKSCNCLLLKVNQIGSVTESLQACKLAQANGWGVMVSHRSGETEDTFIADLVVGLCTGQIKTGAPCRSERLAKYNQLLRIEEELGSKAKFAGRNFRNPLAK
Protocol: (§4) To determine the binding activity of each mutant protein, 400 ng/100 μL of human ENO1 protein or mutated ENO1 protein was coated on a 96-well ELISA plate and incubated overnight at 4° C. and the plate was washed with PBS. The plate was blocked with 1% BSA (w/v) in PBS at room temperature for 1 hour, then washed again with 1×PBS. A primary antibody (EN10.5 mAb) was 2-fold serial diluted to 15 different concentrations and added to the plate at 37° C. for 1 hour. After the reaction was done, the plate was washed 3 times with 1×PBS. A 1/8000 dilution of goat anti-mouse-HRP antibody was added and incubated at 37° C. for 1 hour, then the plate was washed 3 times with 1×PBS. Then, TMB substrate was added and the reaction was allowed to proceed at room temperature for 30 minutes. The reaction was stopped by adding 1N HCl and OD450 was read to determine the activity. Each study was repeated three times. Data are presented as mean±SD. OD readings and concentrations of antibody were used to make a multiple scatter plot using Sigmaplot™. The KD values were predicted by four parameter logistic fit.
(§5) Thus, the crystal structure of ENO1 was downloaded from protein data bank (pdb-entry: 2PSN) to analyze residue positions from this region. […] Every purified ENO1 mutant protein was analyzed for any KD changes by ENO1 binding in ELISA. […]

[7] = molecular target: T3, ENO1 mutant D299 to alanine (human, UniProt P06733 1-434); assay: ELISA, ENO1 mutant A299 coated, EN10.5 mAb titrated, four parameter logistic fit
T3 construct: Expressed in E. coli and purified on Ni-agarose
T3 sequence (P06733 other isoform, or with tags, fused parts or gaps mutant limits assumed): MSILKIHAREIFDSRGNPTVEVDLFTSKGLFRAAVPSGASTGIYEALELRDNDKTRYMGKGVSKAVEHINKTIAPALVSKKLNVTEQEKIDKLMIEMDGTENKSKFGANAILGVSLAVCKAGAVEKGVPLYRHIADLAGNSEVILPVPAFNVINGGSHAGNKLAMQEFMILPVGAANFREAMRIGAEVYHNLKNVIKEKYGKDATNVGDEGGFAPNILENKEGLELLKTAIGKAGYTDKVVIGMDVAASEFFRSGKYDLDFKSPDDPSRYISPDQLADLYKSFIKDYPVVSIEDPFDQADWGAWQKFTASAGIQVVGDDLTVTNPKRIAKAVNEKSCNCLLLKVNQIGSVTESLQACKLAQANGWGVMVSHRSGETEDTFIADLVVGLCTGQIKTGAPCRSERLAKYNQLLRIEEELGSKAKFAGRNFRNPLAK
Protocol: as §4, §5

[8] = molecular target: T4, ENO1 mutant G312 to alanine (human, UniProt P06733 1-434); assay: ELISA, ENO1 mutant A312 coated, EN10.5 mAb titrated, four parameter logistic fit
T4 construct: Expressed in E. coli and purified on Ni-agarose
T4 sequence (P06733 other isoform, or with tags, fused parts or gaps mutant limits assumed): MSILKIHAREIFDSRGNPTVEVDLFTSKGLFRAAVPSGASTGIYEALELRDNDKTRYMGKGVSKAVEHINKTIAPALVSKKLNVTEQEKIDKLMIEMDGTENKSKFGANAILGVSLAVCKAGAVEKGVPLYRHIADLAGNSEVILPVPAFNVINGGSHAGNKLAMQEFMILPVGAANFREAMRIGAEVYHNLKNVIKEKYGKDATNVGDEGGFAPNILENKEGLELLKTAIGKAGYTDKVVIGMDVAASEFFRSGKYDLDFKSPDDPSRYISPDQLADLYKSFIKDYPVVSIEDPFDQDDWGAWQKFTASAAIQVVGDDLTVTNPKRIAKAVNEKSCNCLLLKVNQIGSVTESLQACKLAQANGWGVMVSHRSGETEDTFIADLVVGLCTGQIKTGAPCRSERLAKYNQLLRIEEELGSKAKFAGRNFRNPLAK
Protocol: as §4, §5

[9] = molecular target: T5, ENO1 mutant S310 to alanine (human, UniProt P06733 1-434); assay: ELISA, ENO1 mutant A310 coated, EN10.5 mAb titrated, four parameter logistic fit
T5 construct: Expressed in E. coli and purified on Ni-agarose
T5 sequence (P06733 other isoform, or with tags, fused parts or gaps mutant limits assumed): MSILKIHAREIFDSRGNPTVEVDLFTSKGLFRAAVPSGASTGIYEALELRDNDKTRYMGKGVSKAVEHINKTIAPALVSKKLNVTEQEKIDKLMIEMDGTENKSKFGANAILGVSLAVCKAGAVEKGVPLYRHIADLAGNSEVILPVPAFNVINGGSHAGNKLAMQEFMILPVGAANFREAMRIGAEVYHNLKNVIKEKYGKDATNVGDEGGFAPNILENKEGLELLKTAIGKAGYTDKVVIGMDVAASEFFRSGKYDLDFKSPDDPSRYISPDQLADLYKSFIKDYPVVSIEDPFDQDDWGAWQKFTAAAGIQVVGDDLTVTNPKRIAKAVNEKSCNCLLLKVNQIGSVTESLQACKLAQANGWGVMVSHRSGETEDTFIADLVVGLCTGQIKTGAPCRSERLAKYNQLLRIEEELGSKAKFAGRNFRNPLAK
Protocol: as §4, §5

[10] = molecular target: T6, ENO1 mutant Q298 to alanine (human, UniProt P06733 1-434); assay: ELISA, ENO1 mutant A298 coated, EN10.5 mAb titrated, four parameter logistic fit
T6 construct: Expressed in E. coli and purified on Ni-agarose
T6 sequence (P06733 other isoform, or with tags, fused parts or gaps mutant limits assumed): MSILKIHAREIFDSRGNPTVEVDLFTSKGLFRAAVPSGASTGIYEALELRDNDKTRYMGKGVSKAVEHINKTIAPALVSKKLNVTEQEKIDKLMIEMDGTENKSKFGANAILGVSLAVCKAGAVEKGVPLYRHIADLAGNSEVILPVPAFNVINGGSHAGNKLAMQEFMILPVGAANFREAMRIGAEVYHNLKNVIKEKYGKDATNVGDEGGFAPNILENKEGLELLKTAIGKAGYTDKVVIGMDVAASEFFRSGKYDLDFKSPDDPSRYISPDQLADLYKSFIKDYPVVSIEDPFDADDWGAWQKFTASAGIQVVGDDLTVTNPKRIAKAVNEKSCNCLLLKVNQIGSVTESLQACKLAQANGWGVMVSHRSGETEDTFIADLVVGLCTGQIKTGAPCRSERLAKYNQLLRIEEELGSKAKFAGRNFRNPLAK
Protocol: as §4, §5

A333 = molecular target: T7, A333 (human); assay: ELISA, ENO1 mutant A333 coated, EN10.5 mAb titrated, four parameter logistic fit
T7 construct: Sixth mutant of the alanine scan; It is named only on the sheets; the text lists five mutants
Protocol: as §4, §5

BSA = molecular target: T8, BSA (Bos taurus, UniProt P02769); assay: ELISA, BSA as background
T8 construct: The sheet prints only 'BSA'; also called bovine serum albumin; BSA background
T8 sequence (P02769 25-607 limits assumed): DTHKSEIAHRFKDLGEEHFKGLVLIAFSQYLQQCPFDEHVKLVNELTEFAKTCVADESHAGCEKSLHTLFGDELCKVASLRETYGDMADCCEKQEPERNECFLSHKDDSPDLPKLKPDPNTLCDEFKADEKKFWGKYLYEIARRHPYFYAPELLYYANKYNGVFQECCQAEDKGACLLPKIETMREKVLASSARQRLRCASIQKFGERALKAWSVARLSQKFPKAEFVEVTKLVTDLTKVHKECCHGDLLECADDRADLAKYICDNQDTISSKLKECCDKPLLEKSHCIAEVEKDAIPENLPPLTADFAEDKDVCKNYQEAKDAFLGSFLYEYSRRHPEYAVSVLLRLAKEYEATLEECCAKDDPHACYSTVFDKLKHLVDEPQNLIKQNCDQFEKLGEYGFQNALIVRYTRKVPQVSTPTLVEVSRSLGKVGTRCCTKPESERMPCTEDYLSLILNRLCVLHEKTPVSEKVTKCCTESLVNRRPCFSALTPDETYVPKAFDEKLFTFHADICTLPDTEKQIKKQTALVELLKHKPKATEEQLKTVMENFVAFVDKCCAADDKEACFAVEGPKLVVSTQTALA

T1 sequence (P06733 whole entry): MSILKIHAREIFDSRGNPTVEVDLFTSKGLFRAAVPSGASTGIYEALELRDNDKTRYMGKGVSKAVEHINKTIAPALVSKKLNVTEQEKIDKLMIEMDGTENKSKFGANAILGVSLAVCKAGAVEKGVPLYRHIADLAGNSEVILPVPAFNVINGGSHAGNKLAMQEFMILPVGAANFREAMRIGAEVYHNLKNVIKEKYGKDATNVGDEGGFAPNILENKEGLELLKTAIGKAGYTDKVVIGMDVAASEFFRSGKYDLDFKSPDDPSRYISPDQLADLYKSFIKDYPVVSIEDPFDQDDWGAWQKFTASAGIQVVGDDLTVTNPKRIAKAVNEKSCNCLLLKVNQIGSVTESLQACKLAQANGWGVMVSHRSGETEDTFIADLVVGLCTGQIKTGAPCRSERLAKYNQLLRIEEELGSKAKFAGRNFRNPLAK

B1: hum EN10 mAb IMGT (antibody, V domains shown)
VH: QVQLVQSGAEVKKPGASVKVSCKASGYTFTSCVMNWVRQAPGQGLEWMGYINPYNDGTKYNEKFKGRVTMTTDTSTSTAYMELRSLRSDDTAVYYCAREGFYYGNFDNWGQGTLVTVSS
VL: DIQMTQSPSSLSASVGDRVTITCRASENIYSYLTWYQQKPGKAPKLLIYNAKTLPEGVPSRFSGSGSGTDFTLTISSLQPEDFATYYCQHHYGTPYTFGQGTKLEIKR
notes: Humanized antibody, human IgG; also called Hum EN10 IMGT; hum ENO10mAb IMGT
Kd (human ENO1 protein [1]): 0.219 nM
Kd (human ENO1 protein [2]): 0.0365 nM
Kd (human ENO1 protein [3]): ~0.203 nM
Kd (human ENO1 protein [4]): 0.163 nM
Max. (human ENO1 protein [5]): 2.99 O.D 450 nm

B4: EN10.4 (antibody, V domains shown)
VH: B1 VH with C32A
VL: B1 VL
notes: same light chain as humEN10 mAb; human IgG from FreeStyle293 cells; also called EN10.4 mAb; alanine mutant of humEN10 mAb antibody
Kd (human ENO1 protein [4]): 0.14 nM
Max. (human ENO1 protein [5]): 2.94 O.D 450 nm

Further lines, results first:

Kd (human ENO1 protein [1]): 0.5 nM
B2: hum EN10 mAb 4D5 (antibody, V domains shown)
VH: EVQLVESGGGLVQPGGSLRLSCAASGYTFTSCVMNWVRQAPGKGLEWVAYINPYNDGTKYNEKFKGRFTISRDDSKNTLYLQMNSLRAEDTAVYYCAREGFYYGNFDNWGQGTLVTVSS
VL: B1 VL
notes: Humanized antibody, human IgG; also called hum ENO10mAb 4D5; hum EN10 mAb 45D

binding result [6]: no binding (tested: about 1e-7 M)
Kd [7]: 64.3 nM
Kd [8]: 0.2 nM
Kd (human ENO1 protein [4]): 0.157 nM
Kd [9]: 0.217 nM
Max. (human ENO1 protein [5]): 2.97 O.D 450 nm
Kd [10]: 0.238 nM
Kd (A333): 0.21 nM
B3: EN10.5 (antibody, V domains shown)
VH: B1 VH with C32S
VL: B1 VL
notes: same light chain as humEN10 mAb; human IgG; also called EN10.5 mAb; mAb EN10.5

binding result (BSA): no binding
B5: EN10 mAb (antibody, V domains shown)
VH: EVQLQQSGPELVKPGASVKMSCKASGYTFTSCVMNWVKQKPGQGLEWIGYINPYNDGTKYNEKFKGKATLTSDKSSSTAYMELSSLTSEDSAVYYCAREGFYYGNFDNWGQGTTLTVSS
VL: DIQMTQSPASLSASVGETVTITCRASENIYSYLTWYQQKQGKSPQLLVYNAKTLPEGVPSRFSGSGSGTQFSLKINSLQPEDFGSYYCQHHYGTPYTFGGGTKLEITR
notes: Mouse monoclonal antibody purified from hybridoma ascites; also called anti-human ENO1 antibody EN10 mAb; EN10 mAb antibody

Reference: patent US20190322762A1 (DEVELOPMENT CENTER FOR BIOTECHNOLOGY, published 2019)
